Consider three sequences from the supplement of paper PMC6379048.

Holding throughout (test): Kd (EC50 corrected by depletion factor)
In data set [1] the target is T1, RTCA (UniProt O00442).
T1 sequence: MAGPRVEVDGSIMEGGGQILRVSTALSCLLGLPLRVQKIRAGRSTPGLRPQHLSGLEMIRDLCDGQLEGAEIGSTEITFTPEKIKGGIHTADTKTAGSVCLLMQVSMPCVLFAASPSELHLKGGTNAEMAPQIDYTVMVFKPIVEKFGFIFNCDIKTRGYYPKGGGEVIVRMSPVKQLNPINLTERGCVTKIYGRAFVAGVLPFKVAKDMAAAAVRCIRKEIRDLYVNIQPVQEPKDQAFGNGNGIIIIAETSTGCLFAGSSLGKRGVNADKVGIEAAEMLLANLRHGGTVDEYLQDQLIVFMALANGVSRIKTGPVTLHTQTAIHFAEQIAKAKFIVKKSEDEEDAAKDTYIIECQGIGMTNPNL
On the procedure:
(§1)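 Competition-binding assay: HEK293-FT cell lysate (2.5 mg protein) pre-incubated 1 h at 4°C with free motif-containing RNA oligos (0 to 30 µM, 12 doses), then pulled down with the same 5'-amino-C6 RNA oligos immobilised on NHS-Sepharose beads (30 min, 4°C). Bound proteins were quantified by label-free LC-MS/MS and normalised to the water control. EC50 came from a four-parameter log-logistic fit; Kd = EC50 x depletion factor. Random/reversed control probes are dropped.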

Data set [2] addresses T2, DHX36 (UniProt Q9H2U1).
T2 sequence: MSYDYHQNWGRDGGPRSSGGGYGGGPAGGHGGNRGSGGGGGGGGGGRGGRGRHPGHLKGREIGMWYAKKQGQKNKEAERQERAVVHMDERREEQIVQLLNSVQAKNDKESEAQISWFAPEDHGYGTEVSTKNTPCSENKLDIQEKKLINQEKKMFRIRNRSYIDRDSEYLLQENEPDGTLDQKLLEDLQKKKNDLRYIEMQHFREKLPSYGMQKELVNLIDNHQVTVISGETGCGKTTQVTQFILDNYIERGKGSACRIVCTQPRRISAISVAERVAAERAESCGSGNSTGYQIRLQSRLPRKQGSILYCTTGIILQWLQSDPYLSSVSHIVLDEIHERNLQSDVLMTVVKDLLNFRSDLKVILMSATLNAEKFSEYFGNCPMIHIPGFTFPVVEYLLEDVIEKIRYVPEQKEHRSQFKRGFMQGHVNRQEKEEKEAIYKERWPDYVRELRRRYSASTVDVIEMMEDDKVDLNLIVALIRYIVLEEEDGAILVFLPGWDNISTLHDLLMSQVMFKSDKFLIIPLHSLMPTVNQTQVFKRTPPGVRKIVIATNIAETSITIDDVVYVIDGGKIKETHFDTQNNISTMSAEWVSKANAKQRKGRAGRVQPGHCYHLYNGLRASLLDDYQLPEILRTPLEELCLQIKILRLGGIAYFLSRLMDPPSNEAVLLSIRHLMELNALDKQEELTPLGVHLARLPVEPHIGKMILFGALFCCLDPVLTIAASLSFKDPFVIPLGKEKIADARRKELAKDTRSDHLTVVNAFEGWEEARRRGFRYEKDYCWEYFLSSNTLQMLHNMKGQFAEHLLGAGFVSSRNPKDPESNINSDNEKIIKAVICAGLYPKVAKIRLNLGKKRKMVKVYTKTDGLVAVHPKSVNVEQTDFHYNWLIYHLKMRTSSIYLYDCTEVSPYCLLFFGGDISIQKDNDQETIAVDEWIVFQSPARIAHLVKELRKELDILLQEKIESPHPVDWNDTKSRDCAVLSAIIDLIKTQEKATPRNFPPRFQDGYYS
On the procedure:
as §1

Data set [3] deals with T3, XRN2 (UniProt Q9H0D6).
T3 sequence: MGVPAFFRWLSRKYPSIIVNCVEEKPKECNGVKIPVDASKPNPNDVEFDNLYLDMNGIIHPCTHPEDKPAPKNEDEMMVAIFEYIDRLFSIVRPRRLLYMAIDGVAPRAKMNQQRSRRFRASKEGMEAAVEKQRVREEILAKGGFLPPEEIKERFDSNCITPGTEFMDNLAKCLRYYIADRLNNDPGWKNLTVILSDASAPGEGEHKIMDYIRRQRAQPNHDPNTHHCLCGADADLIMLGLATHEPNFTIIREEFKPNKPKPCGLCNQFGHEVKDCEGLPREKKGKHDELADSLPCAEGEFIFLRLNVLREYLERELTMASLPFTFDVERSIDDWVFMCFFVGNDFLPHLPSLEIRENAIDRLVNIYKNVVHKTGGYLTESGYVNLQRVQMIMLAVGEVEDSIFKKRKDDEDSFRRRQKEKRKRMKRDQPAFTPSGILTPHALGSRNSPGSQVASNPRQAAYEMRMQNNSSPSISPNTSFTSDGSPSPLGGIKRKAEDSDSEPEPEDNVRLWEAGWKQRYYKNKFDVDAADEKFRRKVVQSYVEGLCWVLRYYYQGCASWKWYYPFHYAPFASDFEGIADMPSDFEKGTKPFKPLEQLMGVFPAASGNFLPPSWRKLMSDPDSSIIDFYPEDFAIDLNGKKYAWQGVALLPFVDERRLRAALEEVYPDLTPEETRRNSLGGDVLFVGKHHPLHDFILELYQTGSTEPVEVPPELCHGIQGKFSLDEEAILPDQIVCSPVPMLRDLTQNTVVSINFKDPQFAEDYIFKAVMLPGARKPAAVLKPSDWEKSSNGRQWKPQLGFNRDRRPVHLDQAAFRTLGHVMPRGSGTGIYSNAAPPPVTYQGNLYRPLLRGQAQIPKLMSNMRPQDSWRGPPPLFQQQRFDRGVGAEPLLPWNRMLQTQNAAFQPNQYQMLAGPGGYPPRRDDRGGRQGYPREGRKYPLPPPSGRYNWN
On the procedure: as §1

Consider AAUAAA, for which the results for the Kd in data set [1], in data set [2] and in data set [3] were 81.1 nM, 573 nM and 354 nM, respectively.

Consider CUGUCCU, for which the Kd was determined as 990 nM in data set [1], 1850 nM in data set [2] and 80.8 nM in data set [3].

In the case of UAUUUAU, the Kd is 273 nM in data set [1], 632 nM in data set [2] and 184 nM in data set [3].
